Test results reported in patent US7425333B2, “Hypoallergenic allergy vaccines based on the timothy grass pollen allergen Phl p 7” (Biomay Produktions-und Handels-Aktiengesellschaft, priority 2002, dated 2008).

What was measured:
[1] = test system: timothy grass pollen allergic patients and a non-atopic individual; assay: Skin prick testing (SPT), immediate type skin reactions; type: in vivo, human; details: for mean wheal diameter: 8 μg/ml, timothy grass pollen allergic patients, 20 minutes; for skin reactions in the non-allergic individual: non-allergic individual (#4)
Experimental: The in vivo allergenic activity of the peptides and the mutant was studied by skin prick testing (SPT) in 3 timothy grass pollen allergic patients and a non-atopic individual. SPTs were performed on the individuals' forearms. Twenty microliter aliquots containing 2 concentrations of complete rPhl p 7 or Phl p 7-derived mutant M4 (2 μg/ml, 8 μg/ml) as well as two concentrations of Phl p 7-derived peptides (1 μg/ml m, 4 μg/ml ) were applied. In addition, standardized skin prick solutions (timothy grass pollen extract and histamine) (Allergopharma, Reinbeck, Germany) were tested. Reactions were recorded 20 minutes after SPT by photography and by transferring the ballpoint pen-surrounded wheal area with a scotch tape to paper. The mean wheal diameter (Dm) was calculated by measuring the maximal longitudinal and transversal diameter and dividing their sum by 2.

[2] = Secondary structure analysis by far-UV CD; type: physicochemical; details: for secondary structure (far-UV CD spectra): 20° C., 0.1 cm cell
Experimental: CD measurements were carried out on a Jasco J-715 spectropolarimeter using a 0.1 cm pathlength cell equilibrated at 20° C. Spectra were recorded with 0.5 nm resolution at a scan speed of 100 nm/min and resulted from averaging 3 scans. The final spectra were baseline-corrected by subtracting the corresponding MilliQ spectra obtained under identical conditions. Results were fitted with the secondary structure estimation program J-700.

Solubility observation = type: physicochemical
[3] = test system: basophils of a timothy grass pollen allergic individual; assay: Basophil histamine release; type: cell-based, human; details: granulocytes of one allergic individual; for concentration of maximum histamine release: 10^−6-10 μg/ml tested
Experimental: FIG. 3A, B. Induction of histamine release from basophils of a timothy grass pollen allergic patient. Granulocytes of a timothy grass pollen allergic patient were incubated with various concentrations (x-axis) of rPhl p 7 wild type (P7), Phl p 7-derived peptides (P1, P2), Phl p 7-derived mutant (M4) or another antigen (Hom s 4) (FIG. 3A).
Granulocytes were isolated from heparinized blood samples of a timothy grass pollen allergic individual by dextran sedimentation. Cells were incubated with increasing concentrations (10^−6-10 μg/ml) of each peptide or the mutant, and, for control purposes, with rPhl p 7 wild type. Histamine released in the cell-free culture supernatant was measured by radioimmunoassay (Immunotech, Marseille, France). Total histamine was determined after freezing and thawing of the cells.

[4] = test system: serum IgE of a Phl p 7-sensitized grass pollen allergic patient; assay: IgE binding, western blot with serum of a timothy grass pollen allergic patient; parameters: species or system human; details: serum from one timothy grass pollen allergic patient
From the text: (§1) Nitrocellulose blotted rPhl p 7 (lane Phl p 7) and rPhl p 7-derived mutants (lanes M1.6, M2A, M4) were probed with serum from a Phl p 7-sensitized grass pollen allergic patient. Bound IgE antibodies were detected with ^125I-labeled anti human IgE antibodies (FIG. 2A). Nitrocellulose dotted Phl p 7 and Phl p 7-derived mutants (M1.6, M2A, M4) as well the Phl p 7-derived peptides were probed with sera from ten Phl p 7-sensitized grass pollen allergic patients. Bound IgE antibodies were detected with ^125I-labeled anti human IgE antibodies (FIG. 2B).
(§2) The IgE binding capacity of purified Phl p 7-derived mutants (M1.6, M2A, M4) was compared with that of Phl p 7 wild type by western blot analysis using serum from a timothy grass pollen allergic patient (FIG. 2A) as well as by dot blot experiments using sera from ten timothy grass pollen allergic patients (FIG. 2B).

recombinant Aln g 4 = assay: Rabbit immunization, antiserum reactivity with Aln g 4 by dot blot; type: in vivo; details: rabbit antiserum diluted 1:1000
Sequence of recombinant Aln g 4 (O81701 whole entry): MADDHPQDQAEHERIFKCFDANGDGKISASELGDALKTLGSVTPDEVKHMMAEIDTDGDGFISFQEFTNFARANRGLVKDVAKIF

rPhl p 7 wild type = assay: Rabbit immunization, IgG reactivity with Phl p 7 by dot blot; type: in vivo; details: rabbits, 200 μg/injection, Freund's adjuvant; antiserum 1:500-1:2000
[5] = test system: serum IgE of Phl p 7-sensitized grass pollen allergic patients; assay: IgE binding, dot blot with sera from ten timothy grass pollen allergic patients; parameters: species or system human
From the text: The polypeptides of the invention show reduced binding to IgE antibodies from timothy grass pollen allergic patients compared with wild type Phl p 7 (SEQ ID NO:1). […] Recombinant Phl p 7 consisting substantially of the amino acid sequence as shown in SEQ ID NO:1 can be used to determine the IgE binding activity of wild type Phl p 7. IgE binding of polypeptides may be determined by Western blot analysis or dot blot experiments using serum from a timothy grass pollen allergic patient. Timothy grass pollen allergy is diagnosed according to a case history indicative for timothy grass pollen allergy (i.e., seasonal symptoms of allergy during the flowering period of grasses), positive skin test reaction to timothy grass pollen allergens and/or the detection of specific IgE antibodies to timothy grass pollen allergens in serum. Dot blots can be quantified by measuring the amount of ^125I-labeled anti-human IgE antibodies by gamma counting as described (Niederberger et al. J. Allergy Clin. Immunol. 1998, 102, 579-591).
as §1, §2
The IgE binding capacity of Phl p 7-derived peptides was compared with that of Phl p 7 wild type by dot blot experiments using sera from ten timothy grass pollen allergic patients (FIG. 2B). For both peptides the IgE binding capacity was completely abolished, when tested with serum from ten timothy grass pollen allergic patients.

In the case of `NCCc1c[nH]cn1` [histamine, reference compound], the “skin reaction to positive control” value ([1]; all individuals (3 allergic, 1 non-allergic)) is reported as “All individuals reacted”.

With “N-terminal peptide: synthetic peptide comprising the complete N-terminal calcium-binding domain of Phl p 7 (SEQ ID NO:2), one cysteine added” the “secondary structure (far-UV CD spectra)” value [2] was “random coil secondary structure”.

For “C-terminal peptide: synthetic peptide comprising the complete C-terminal calcium-binding domain of Phl p 7 (SEQ ID NO:3), one cysteine added”, the solubility (Solubility observation) was “significant decreased solubility and precipitation” and the “secondary structure (far-UV CD spectra)” value [2] was “unfolded”.

B1: Phl p 7 wild type: recombinantly produced wild type timothy grass pollen allergen Phl p 7, amino acid sequence SEQ ID NO:1 (protein)
chain: MADDMERIFKRFDTNGDGKISLSELTDALRTLGSTSADEVQRMMAEIDTDGDGFIDFNEFISFCNANPGLMKDVAKVF
modifications: Phleum pratense
With B1 the “secondary structure (far-UV CD spectra)” value [2] was “significant larger α-helical signal”, the “immediate type skin reactions” value ([1]; skin prick test, 2 μg/ml) was “induced immediate type skin reactions” and the mean wheal diameter ([1]; skin prick test) was 9.3 mm. For the same molecule, the “skin reactions in the non-allergic individual” value ([1]; skin prick test) was “no reactions” and the “concentration of maximum histamine release” value [3] was 10^−4 μg/ml.

B2: M4: Phl p 7-derived mutant, SEQ ID NO:6: 17D→A, 24E→24A; 52D→52A, 59E→59A (protein)
chain: MADDMERIFKRFDTNGAGKISLSALTDALRTLGSTSADEVQRMMAEIDTDGAGFIDFNAFISFCNANPGLMKDVAKVF
With B2 the “IgE binding capacity compared to Phl p 7 (western blot)” value [4] was “strongest reduction”, the “secondary structure (far-UV CD spectra)” value [2] was “increasing portion of random-coil secondary structure” and the “decrease of CD signal in contrast to normalized spectrum of rPhl p 7” value ([2]; second analysis comparing Phl p 7 and point mutant-4) was “approximately 20%”. The “recognition of cross-reactive allergen Aln g 4 by rabbit antiserum raised against the immunogen” value (recombinant Aln g 4) was “recognized the Phl p 7-cross-reactive allergen, Aln g 4”, the “induction of IgG anti-Phl p 7 antibody response” value (rPhl p 7 wild type) was “induced IgG anti-Phl p 7 antibody responses” and the mean wheal diameter ([1]; skin prick test) was 7 mm. For the same molecule, the “immediate skin reactions compared with Phl p 7 wild type” value ([1]; skin prick test, allergic patients) was “moderately weaker”, the “skin reactions in the non-allergic individual” value ([1]; skin prick test) was “no reactions” and the “patients whose serum IgE bound (dot blot)” value [5] was “four out of ten”. For the same molecule, the “IgE binding capacity (dot blot)” value ([5]; compared with Phl p 7 wild type) was “strongest reduction of IgE binding capacity”, the “concentration of maximum histamine release” value [3] was 10^−3 μg/ml and the “induction of histamine release” value ([3]; increasing concentrations) was “dose-dependent release of histamine”.

B3: M2A: Phl p 7-derived mutant, SEQ ID NO:5: 17D→A, 24E→24A; 59E→59A (protein)
chain: MADDMERIFKRFDTNGAGKISLSALTDALRTLGSTSADEVQRMMAEIDTDGDGFIDFNAFISFCNANPGLMKDVAKVF
With B3 the “patients whose serum IgE bound (dot blot)” value [5] was “five out of ten”.

B4: M1.6: Phl p 7-derived mutant, SEQ ID NO:4: 24E→24A (first EF-hand); 59E→59A (second EF-hand) (protein)
chain: MADDMERIFKRFDTNGDGKISLSALTDALRTLGSTSADEVQRMMAEIDTDGDGFIDFNAFISFCNANPGLMKDVAKVF
In the case of B4, the “patients whose serum IgE bound (dot blot)” value [5] is reported as “six out of ten”.
